Earlier results on two substances are cited in PMC8541618.

The target in data set [1] is VanRA (Enterococcus faecium) (UniProt Q06239).
Data set [2] has the same target. The source holds these as a separate data set.

Where two headings read alike, the source gives them in different places.

Sequence of UniProt Q06239 (Q06239 whole entry): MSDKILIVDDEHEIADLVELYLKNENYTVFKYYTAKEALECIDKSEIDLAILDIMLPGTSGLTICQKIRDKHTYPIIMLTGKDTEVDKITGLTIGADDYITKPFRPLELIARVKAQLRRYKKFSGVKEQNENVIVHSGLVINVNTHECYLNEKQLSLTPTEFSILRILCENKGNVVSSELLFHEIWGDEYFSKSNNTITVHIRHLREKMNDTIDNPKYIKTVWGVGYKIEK

Broadly, the Kd is the equilibrium constant for the complex coming apart. Regarding “VanSA cytosolic portion (from UniProt Q06240)”, the Kd in data set [1] was 6.8 µM. Regarding VanSA (from UniProt Q06240), in data set [2], the Kd is 1.9 µM.
